Measured values from patent US20250346644A1 (LATTICON SUZHOU BIOPHARMACEUTICALS, published 2025).
Substitutions are numbered along the chain they refer to. Numbers in names are those of the source. Where two headings read alike, the source gives them in different places. Values belong to the binder of their own block, whether it stands above or below them.

Tests used:
hIL2-DM-his [1] = biological target: T1, hIL2-DM-his (human, UniProt P60568 21-153); experiment: BLI ForteBio, Ab on Protein A sensor
T1 construct: expressed in ExpiCHO-S cells, nickel-column purified; also called hIL-2 mutein containing two point mutations K64G and N90R (with a his-tag); not shown: his-tag

hIL2-DM-his [2] = biological target: T1, hIL2-DM-his; experiment: BLI ForteBio, Ab on Protein A sensor; remark: listed apart in the source
Experimental: After each cycle of association and dissociation steps, the sensor was regenerated by 10 mM glycine buffer (pH 1.5) and then stated with the next cycle of detection. After the detection, the association rate constant and dissociation rate constant between the antibody and antigen were fitted and extrapolated using the analytical software, and the value of affinity constant (KD) was calculated.

T1 sequence (P60568 21-153 K84G/N110R): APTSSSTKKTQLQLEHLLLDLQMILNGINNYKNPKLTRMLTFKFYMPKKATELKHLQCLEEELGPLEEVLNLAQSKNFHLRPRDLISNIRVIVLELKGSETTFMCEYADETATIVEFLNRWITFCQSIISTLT

B1: K1G1 (antibody, V domains shown)
VH: QVQLVQSGAEVKKPGATVKISCKVSGDTITAYYMHWVRQAPGQGLEWIGRIDPEDDSTKYAENFKGRVTITADTSTDTAYMELSSLRSEDTAVYYCTTVTFYYSRELRWFAYWGQGTLVTVSS
VL: DIVLTQSPATLSLSPGERATLSCQASQYISNYLSWYQQKPGQAPRLLIYQATSLASGIPARFSGSRSGTDFTLTISSLEPEDFAVYYCLQHYSTPYTFGQGTKLEIK
Kd (hIL2-DM-his [1]): 1.43 nM
koff (hIL2-DM-his [1]): 0.000491 s⁻¹
kon (hIL2-DM-his [1]): 343000 M⁻¹ s⁻¹

B4: hS4B6-H6K3-hu03 (antibody, V domains shown)
VH: B1 VH with A31D, M34L, G66N, D77N
VL: B1 VL with Y28D, S30G, Q50S, S56D, F71Y
notes: H6K3 with heavy chain A31D
binding result (hIL2-DM-his [2]): no binding (tested: 100 nM (highest antigen concentration))

B5: K3G4 (antibody, V domains shown)
VH: B1 VH with Y102L
VL: B1 VL with S30G
Kd (hIL2-DM-his [1]): 3 nM
koff (hIL2-DM-his [1]): 0.00122 s⁻¹
kon (hIL2-DM-his [1]): 408000 M⁻¹ s⁻¹

B6: hS4B6-H6K3-hu01 (antibody, V domains shown)
VH: B1 VH with D27Y, M34L, G66N, D77N
VL: B1 VL with Y28D, S30G, Q50S, S56D, F71Y
notes: H6K3 with heavy chain D27Y
binding result (hIL2-DM-his [2]): no binding (tested: 100 nM (highest antigen concentration))

B7: K3G2 (antibody, V domains shown)
VH: B1 VH with V99I
VL: B1 VL with S30G
Kd (hIL2-DM-his [1]): 2.91 nM
koff (hIL2-DM-his [1]): 0.00118 s⁻¹
kon (hIL2-DM-his [1]): 407000 M⁻¹ s⁻¹

B13: K1G11 (antibody, V domains shown)
VH: B1 VH with E54D, V99I, Y102L
VL: B1 VL
Kd (hIL2-DM-his [1]): 0.928 nM
koff (hIL2-DM-his [1]): 0.000373 s⁻¹
kon (hIL2-DM-his [1]): 401000 M⁻¹ s⁻¹

B15: K2G6 (antibody, V domains shown)
VH: B1 VH with E54D, V99I
VL: B1 VL with Q50S
Kd (hIL2-DM-his [1]): 1.33 nM
koff (hIL2-DM-his [1]): 0.000593 s⁻¹
kon (hIL2-DM-his [1]): 446000 M⁻¹ s⁻¹

B23: K1G8 (antibody, V domains shown)
VH: B1 VH with V99I, Y102L
VL: B1 VL
Kd (hIL2-DM-his [1]): 0.778 nM
koff (hIL2-DM-his [1]): 0.000291 s⁻¹
kon (hIL2-DM-his [1]): 374000 M⁻¹ s⁻¹

B27: K2G10 (antibody, V domains shown)
VH: B1 VH with E54D, V99I, S104T
VL: B1 VL with Q50S
Kd (hIL2-DM-his [1]): 0.973 nM
koff (hIL2-DM-his [1]): 0.000418 s⁻¹
kon (hIL2-DM-his [1]): 429000 M⁻¹ s⁻¹

B28: hS4B6-H6K3-hu02 (antibody, V domains shown)
VH: B1 VH with I29F, M34L, G66N, D77N
VL: B1 VL with Y28D, S30G, Q50S, S56D, F71Y
notes: H6K3 with heavy chain I29F
binding result (hIL2-DM-his [2]): no binding (tested: 100 nM (highest antigen concentration))

B30: hS4B6-H6K3-hu04 (antibody, V domains shown)
VH: B1 VH with G66N, D77N
VL: B1 VL with Y28D, S30G, Q50S, S56D, F71Y
notes: H6K3 with heavy chain L34M
Binding Response (nm) (hIL2-DM-his [2]): 0.143 nm
Kd (hIL2-DM-his [2]): 34.6 nM
koff (hIL2-DM-his [2]): 0.0149 s⁻¹
kon (hIL2-DM-his [2]): 430000 M⁻¹ s⁻¹

B31: K2G2 (antibody, V domains shown)
VH: B1 VH with V99I
VL: B1 VL with Q50S
Kd (hIL2-DM-his [1]): 1.33 nM
koff (hIL2-DM-his [1]): 0.000562 s⁻¹
kon (hIL2-DM-his [1]): 424000 M⁻¹ s⁻¹

B33: K2G4 (antibody, V domains shown)
VH: B1 VH with Y102L
VL: B1 VL with Q50S
Kd (hIL2-DM-his [1]): 1.08 nM
koff (hIL2-DM-his [1]): 0.000455 s⁻¹
kon (hIL2-DM-his [1]): 421000 M⁻¹ s⁻¹

B34: K1G9 (antibody, V domains shown)
VH: B1 VH with V99I, Y102L, S104T
VL: B1 VL
Kd (hIL2-DM-his [1]): 0.856 nM
koff (hIL2-DM-his [1]): 0.000285 s⁻¹
kon (hIL2-DM-his [1]): 333000 M⁻¹ s⁻¹

B35: K4G7 (antibody, V domains shown)
VH: B1 VH with V99I, S104T
VL: B1 VL with S30G, Q50S
Kd (hIL2-DM-his [1]): 3.2 nM
koff (hIL2-DM-his [1]): 0.00127 s⁻¹
kon (hIL2-DM-his [1]): 396000 M⁻¹ s⁻¹

B37: K4G10 (antibody, V domains shown)
VH: B1 VH with E54D, V99I, S104T
VL: B1 VL with S30G, Q50S
Kd (hIL2-DM-his [1]): 2.47 nM
koff (hIL2-DM-his [1]): 0.000907 s⁻¹
kon (hIL2-DM-his [1]): 367000 M⁻¹ s⁻¹

Second part, the binder after the results:

Binding Response (nm) (hIL2-DM-his [2]): 0.139 nm
Kd (hIL2-DM-his [2]): 39.4 nM
koff (hIL2-DM-his [2]): 0.0152 s⁻¹
kon (hIL2-DM-his [2]): 387000 M⁻¹ s⁻¹
B2: hS4B6-H6K3-hu05 (antibody, V domains shown)
VH: B1 VH with M34L, I48M, G66N, D77N
VL: B1 VL with Y28D, S30G, Q50S, S56D, F71Y
notes: H6K3 with heavy chain I48M

Kd (hIL2-DM-his [1]): 2.13 nM
koff (hIL2-DM-his [1]): 0.000844 s⁻¹
kon (hIL2-DM-his [1]): 397000 M⁻¹ s⁻¹
B3: K3G6 (antibody, V domains shown)
VH: B1 VH with E54D, V99I
VL: B1 VL with S30G

Kd (hIL2-DM-his [1]): 1.13 nM
koff (hIL2-DM-his [1]): 0.000507 s⁻¹
kon (hIL2-DM-his [1]): 448000 M⁻¹ s⁻¹
B8: K2G8 (antibody, V domains shown)
VH: B1 VH with V99I, Y102L
VL: B1 VL with Q50S

Kd (hIL2-DM-his [1]): 3.72 nM
koff (hIL2-DM-his [1]): 0.00143 s⁻¹
kon (hIL2-DM-his [1]): 384000 M⁻¹ s⁻¹
B9: K4G2 (antibody, V domains shown)
VH: B1 VH with V99I
VL: B1 VL with S30G, Q50S

Kd (hIL2-DM-his [1]): 0.686 nM
koff (hIL2-DM-his [1]): 0.000326 s⁻¹
kon (hIL2-DM-his [1]): 476000 M⁻¹ s⁻¹
B10: K4G12 (antibody, V domains shown)
VH: B1 VH with E54D, V99I, Y102L, S104T
VL: B1 VL with S30G, Q50S

Kd (hIL2-DM-his [1]): 1.96 nM
koff (hIL2-DM-his [1]): 0.000656 s⁻¹
kon (hIL2-DM-his [1]): 336000 M⁻¹ s⁻¹
B11: K3G7 (antibody, V domains shown)
VH: B1 VH with V99I, S104T
VL: B1 VL with S30G

Kd (hIL2-DM-his [1]): 2.25 nM
koff (hIL2-DM-his [1]): 0.00082 s⁻¹
kon (hIL2-DM-his [1]): 364000 M⁻¹ s⁻¹
B12: K4G4 (antibody, V domains shown)
VH: B1 VH with Y102L
VL: B1 VL with S30G, Q50S

Kd (hIL2-DM-his [1]): 1.46 nM
koff (hIL2-DM-his [1]): 0.000585 s⁻¹
kon (hIL2-DM-his [1]): 402000 M⁻¹ s⁻¹
B14: K3G10 (antibody, V domains shown)
VH: B1 VH with E54D, V99I, S104T
VL: B1 VL with S30G

Kd (hIL2-DM-his [1]): 4.28 nM
koff (hIL2-DM-his [1]): 0.00151 s⁻¹
kon (hIL2-DM-his [1]): 352000 M⁻¹ s⁻¹
B16: K4G1 (antibody, V domains shown)
VH: B1 VH
VL: B1 VL with S30G, Q50S

Kd (hIL2-DM-his [1]): 3.72 nM
koff (hIL2-DM-his [1]): 0.00124 s⁻¹
kon (hIL2-DM-his [1]): 334000 M⁻¹ s⁻¹
B17: K3G5 (antibody, V domains shown)
VH: B1 VH with S104T
VL: B1 VL with S30G

Kd (hIL2-DM-his [1]): 4.4 nM
koff (hIL2-DM-his [1]): 0.00186 s⁻¹
kon (hIL2-DM-his [1]): 424000 M⁻¹ s⁻¹
B18: K3G1 (antibody, V domains shown)
VH: B1 VH
VL: B1 VL with S30G

Kd (hIL2-DM-his [1]): 2.7 nM
koff (hIL2-DM-his [1]): 0.00113 s⁻¹
kon (hIL2-DM-his [1]): 418000 M⁻¹ s⁻¹
B19: K4G5 (antibody, V domains shown)
VH: B1 VH with S104T
VL: B1 VL with S30G, Q50S

Kd (hIL2-DM-his [1]): 0.927 nM
koff (hIL2-DM-his [1]): 0.000396 s⁻¹
kon (hIL2-DM-his [1]): 428000 M⁻¹ s⁻¹
B20: K1G12 (antibody, V domains shown)
VH: B1 VH with E54D, V99I, Y102L, S104T
VL: B1 VL

Kd (hIL2-DM-his [1]): 2.49 nM
koff (hIL2-DM-his [1]): 0.000856 s⁻¹
kon (hIL2-DM-his [1]): 344000 M⁻¹ s⁻¹
B21: K4G8 (antibody, V domains shown)
VH: B1 VH with V99I, Y102L
VL: B1 VL with S30G, Q50S

Kd (hIL2-DM-his [1]): 3.08 nM
koff (hIL2-DM-his [1]): 0.00108 s⁻¹
kon (hIL2-DM-his [1]): 351000 M⁻¹ s⁻¹
B22: K4G3 (antibody, V domains shown)
VH: B1 VH with E54D
VL: B1 VL with S30G, Q50S

Kd (hIL2-DM-his [1]): 1.35 nM
koff (hIL2-DM-his [1]): 0.000489 s⁻¹
kon (hIL2-DM-his [1]): 361000 M⁻¹ s⁻¹
B24: K2G7 (antibody, V domains shown)
VH: B1 VH with V99I, S104T
VL: B1 VL with Q50S

Kd (hIL2-DM-his [1]): 1.32 nM
koff (hIL2-DM-his [1]): 0.000512 s⁻¹
kon (hIL2-DM-his [1]): 389000 M⁻¹ s⁻¹
B25: K2G3 (antibody, V domains shown)
VH: B1 VH with E54D
VL: B1 VL with Q50S

Kd (hIL2-DM-his [1]): 1.49 nM
koff (hIL2-DM-his [1]): 0.000529 s⁻¹
kon (hIL2-DM-his [1]): 356000 M⁻¹ s⁻¹
B26: K3G9 (antibody, V domains shown)
VH: B1 VH with V99I, Y102L, S104T
VL: B1 VL with S30G

Kd (hIL2-DM-his [1]): 1.4 nM
koff (hIL2-DM-his [1]): 0.000553 s⁻¹
kon (hIL2-DM-his [1]): 396000 M⁻¹ s⁻¹
B29: K2G5 (antibody, V domains shown)
VH: B1 VH with S104T
VL: B1 VL with Q50S

Kd (hIL2-DM-his [1]): 3.34 nM
koff (hIL2-DM-his [1]): 0.00134 s⁻¹
kon (hIL2-DM-his [1]): 400000 M⁻¹ s⁻¹
B32: K3G3 (antibody, V domains shown)
VH: B1 VH with E54D
VL: B1 VL with S30G

Kd (hIL2-DM-his [1]): 2.33 nM
koff (hIL2-DM-his [1]): 0.000994 s⁻¹
kon (hIL2-DM-his [1]): 426000 M⁻¹ s⁻¹
B36: K4G6 (antibody, V domains shown)
VH: B1 VH with E54D, V99I
VL: B1 VL with S30G, Q50S

Kd (hIL2-DM-his [1]): 1.5 nM
koff (hIL2-DM-his [1]): 0.000446 s⁻¹
kon (hIL2-DM-his [1]): 297000 M⁻¹ s⁻¹
B38: K3G8 (antibody, V domains shown)
VH: B1 VH with V99I, Y102L
VL: B1 VL with S30G
